These results are taken from PMC5300874.

In assay [1] the target is (His)Rpo3, N-terminally histidine-tagged wild-type Rpo3 expressed in Methanosarcina acetivorans (Methanosarcina acetivorans) (UniProt P0CG28).
The target in assay [2] is (His)Rpo3ΔFeS1 (Methanosarcina acetivorans) (UniProt P0CG28).
Assay [3] addresses (His)Rpo3mFeS2 (Methanosarcina acetivorans) (UniProt P0CG28).
Assay [4] deals with (His)Rpo3ΔD3 (Methanosarcina acetivorans) (UniProt P0CG28).
In assay [5] the target is (His)Rpo3ΔFeS2 (Methanosarcina acetivorans) (UniProt P0CG28). Description: pull-down; merodiploid M. acetivorans strains (native Rpo3 also present), tetracycline-induced; (His)Rpo3 variant held on Ni2+-agarose from lysate, anaerobic; eluates normalised to 15 ng (His)Rpo3; western blot for Rpo11, Rpo2′, Rpo1″.

In assay [1], “Rpo1″ (RpoA″), catalytic subunit of Methanosarcina acetivorans RNA polymerase (natural protein)” gave a nonspecific transcription (RNAP) activity of the imidazole eluate, gene replacement strain DJL51 (counts per min ng^-1 Rpo3) of 210. In assay [2], this substance came in with a nonspecific transcription (RNAP) activity of the imidazole eluate, gene replacement strain DJL52 (counts per min ng^-1 Rpo3) of 33. The same substance gave a nonspecific transcription (RNAP) activity of the imidazole eluate, gene replacement strain DJL55 (counts per min ng^-1 Rpo3) in assay [3] of 94. The substance further displayed a nonspecific transcription (RNAP) activity of the imidazole eluate, gene replacement strain DJL54 (counts per min ng^-1 Rpo3) in assay [4] of 90.
In assay [5], “Rpo2′ (RpoB′), catalytic subunit of Methanosarcina acetivorans RNA polymerase (from UniProt Q8TRB6 1-604) (natural protein)” came in with a percent less in the eluate than with (His)Rpo3 (band intensity) of 50 % less.
